Source: patent US20240166767A1 (SCIRHOM, published 2024)
Where a chain is given by its changes, count along the chain named.

T1: human iRhom1 full length wild type C-terminally tagged with 3 consecutive copies of the T7 epitope (human, UniProt Q96CC6 1-855)
T1 construct: also called hiR1-FL-WT-T7; human iRhom1 variant
T1 sequence: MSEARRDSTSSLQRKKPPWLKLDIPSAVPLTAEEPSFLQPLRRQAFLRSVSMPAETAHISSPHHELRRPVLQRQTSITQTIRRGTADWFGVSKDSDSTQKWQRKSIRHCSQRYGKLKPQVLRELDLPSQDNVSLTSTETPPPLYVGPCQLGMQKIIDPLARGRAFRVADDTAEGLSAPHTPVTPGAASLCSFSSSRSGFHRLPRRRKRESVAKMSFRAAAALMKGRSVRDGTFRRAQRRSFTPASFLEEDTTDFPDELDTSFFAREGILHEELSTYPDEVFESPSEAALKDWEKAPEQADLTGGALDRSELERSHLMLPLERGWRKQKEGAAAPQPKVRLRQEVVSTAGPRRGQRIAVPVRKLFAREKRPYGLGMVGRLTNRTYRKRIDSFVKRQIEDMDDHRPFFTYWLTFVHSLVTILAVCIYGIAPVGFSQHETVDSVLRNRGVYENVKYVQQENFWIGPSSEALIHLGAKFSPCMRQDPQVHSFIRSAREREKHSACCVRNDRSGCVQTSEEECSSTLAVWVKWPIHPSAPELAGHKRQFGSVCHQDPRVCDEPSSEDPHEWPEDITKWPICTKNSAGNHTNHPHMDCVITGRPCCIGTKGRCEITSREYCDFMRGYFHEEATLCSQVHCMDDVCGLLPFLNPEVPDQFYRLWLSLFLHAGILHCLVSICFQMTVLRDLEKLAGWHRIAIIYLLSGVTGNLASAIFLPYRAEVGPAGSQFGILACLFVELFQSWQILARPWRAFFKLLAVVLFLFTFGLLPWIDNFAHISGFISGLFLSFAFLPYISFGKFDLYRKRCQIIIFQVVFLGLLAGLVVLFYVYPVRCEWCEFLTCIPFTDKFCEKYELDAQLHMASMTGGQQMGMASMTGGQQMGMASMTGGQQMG

T2: human iRhom2 full length wild type C-terminally tagged with 3 consecutive copies of the T7 epitope (UniProt Q6PJF5 1-856)
T2 chain: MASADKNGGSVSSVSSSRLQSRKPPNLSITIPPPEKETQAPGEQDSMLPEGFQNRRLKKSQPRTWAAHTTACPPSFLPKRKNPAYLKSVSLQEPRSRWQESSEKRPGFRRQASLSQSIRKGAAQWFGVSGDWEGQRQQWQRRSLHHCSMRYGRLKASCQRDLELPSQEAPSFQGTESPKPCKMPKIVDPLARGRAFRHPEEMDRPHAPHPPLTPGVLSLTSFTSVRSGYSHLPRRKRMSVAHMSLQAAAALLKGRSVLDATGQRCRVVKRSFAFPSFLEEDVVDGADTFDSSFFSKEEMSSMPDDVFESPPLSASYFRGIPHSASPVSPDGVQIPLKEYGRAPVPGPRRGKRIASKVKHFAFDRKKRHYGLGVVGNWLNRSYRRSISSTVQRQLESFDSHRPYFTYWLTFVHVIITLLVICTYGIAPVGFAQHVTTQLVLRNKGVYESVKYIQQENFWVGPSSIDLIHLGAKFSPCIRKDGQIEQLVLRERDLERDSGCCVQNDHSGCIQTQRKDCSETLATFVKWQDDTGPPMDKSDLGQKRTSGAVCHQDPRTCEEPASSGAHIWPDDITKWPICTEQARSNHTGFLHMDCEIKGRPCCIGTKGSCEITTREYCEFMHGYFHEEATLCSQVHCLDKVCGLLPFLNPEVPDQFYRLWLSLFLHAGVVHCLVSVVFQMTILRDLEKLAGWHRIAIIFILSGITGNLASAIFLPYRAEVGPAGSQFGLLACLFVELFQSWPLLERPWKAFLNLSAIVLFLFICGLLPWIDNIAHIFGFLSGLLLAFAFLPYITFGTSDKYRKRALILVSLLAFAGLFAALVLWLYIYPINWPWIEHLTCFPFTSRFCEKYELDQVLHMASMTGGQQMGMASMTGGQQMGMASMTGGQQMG

B1: humanized antibody 16-B-07 (antibody, V domains shown)
VH: QVTLRESGPALVKPTQTLTLTCTFSGFSLSTFALGVGWIRQPPGKALEWLAHIWWDEDKYYNPALKSRLTISKDTSKNQVVLTITNMDPVDTATYYCARITTYYYGMDYWGQGTLVTVSS
VL: EIVMTQSPDFQSVTPKEKVTITCRASQSIGNHLHWYQQKPDASPKLLIKYASQSISGVPSRFSGSGSGTDFTLTINSLEAEDAATYFCQQSYQWPLTFGQGTKLEIK
notes: Tested as whole humanized antibody produced in CHO cells and detected with anti-human IgG; the general methods speak of human IgG1/Kappa; also called clone 16-B-07
B2: humanized antibody 16-B-05 (antibody, V domains shown)
VH: B1 VH
VL: B1 VL with Q93N
notes: Tested as whole humanized antibody produced in CHO cells and detected with anti-human IgG; the general methods speak of human IgG1/Kappa; The printed LCVD reads SRESGSG where the printed cDNA encodes SRFSGSG; also called clone 16-B-05
B3: humanized antibody 16-B-03 (antibody, V domains shown)
VH: B1 VH with E57D
VL: B1 VL
notes: Tested as whole humanized antibody produced in CHO cells and detected with anti-human IgG; the general methods speak of human IgG1/Kappa; also called clone 16-B-03
B4: humanized antibody 42-B-04 (antibody, V domains shown)
VH: QVTLRESGPALVKPTQTLTLTCTFSGFSLSTFGRGVGWIRQPPGKALEWLAHIWWDDEKYYNSALKSRLTISKDTSKNQVVLTITNMDPVDTATYYCARIQNYGSNYWYFDVWGQGTLVTVSS
VL: AIQLTQSPSSLSASVGDRVTITCRASSRISYMFWYQQKPGKAPKVLIYDTSNLASGVPSRFSGSGSGTDYTLTISSLQPEDFATYYCQQWNAYPLTFGQGTKLEIK
notes: Tested as whole humanized antibody produced in CHO cells and detected with anti-human IgG; the general methods speak of human IgG1/Kappa; also called clone 42-B-04
B5: humanized antibody 23-B-04 (antibody, V domains shown)
VH: B4 VH with R34M, Q101S, D111N
VL: B4 VL with R28S, I29V, F33Y
notes: Tested as whole humanized antibody produced in CHO cells and detected with anti-human IgG; the general methods speak of human IgG1/Kappa; also called clone 23-B-04
B6: humanized antibody 42-B-02 (antibody, V domains shown)
VH: B4 VH
VL: B4 VL with A92S
notes: Tested as whole humanized antibody from transient expression of heavy chain/kappa light chain pairs in CHO cells, detected with anti-human IgG; the general methods speak of human IgG1/Kappa; also called clone 42-B-02

Tests used:
[1] = biological target: T1, human iRhom1 full length wild type …; test: FACS on MEF-DKO-hiR1-FL-WT-T7 cells
Experimental: In brief, in addition to immortalized MEF-DKO-EV control cells and MEF-DKO-hiR2-FL-WT-T7 cells (as already described in example 3), MEF-DKO-hiR1-FL-WT-T7 cells were harvested with 10 mM EDTA in PBS, washed and resuspended in FACS buffer (PBS, 3% FBS, 0.05% sodium azide), and seeded in Nunc U-bottom 96-well plates (Thermo Fisher Scientific, USA) at approximately 3×10⁵ cells per well. To pellet cells and remove supernatants, the plates were centrifuged at 1,500 rpm and 4° C. for 3 minutes. For primary staining, cells were resuspended in 100 μl per well of either FACS buffer alone (controls), mouse monoclonal anti-T7 IgG (Merck Millipore, USA) at 3 μg/ml FACS buffer or the humanized antibodies 16-B-03, 16-B-05, 16-B-07, 23-B-04, 42-B-02, 42-B-04 of the invention also at 3 μg/ml FACS buffer and incubated on ice for 1 hour. Afterwards, plates were centrifuged at 1,500 rpm and 4° C. for 3 minutes and washed twice with 200 μl per well of FACS buffer. For secondary staining of previous anti T7 staining, cells were spun down and resuspended in 100 μl per well of PE-conjugated goat anti-mouse IgG F(ab′)2 detection fragment (Dianova, Germany) diluted 1:100 in FACS buffer. For secondary staining of previous staining with humanized antibodies of invention, cells were spun down and resuspended in 100 μl per well of PE-conjugated goat anti-human IgG F(ab′)2 detection fragment (Dianova, Germany) diluted 1:100 in FACS buffer. Protected from light, the cell suspensions were incubated on ice for 1 hour. Plates were then centrifuged at 1,500 rpm and 4° C. for 3 minutes and washed three times with 200 μl per well of FACS buffer. Finally, cells were resuspended in 150 μl per well of FACS buffer and analyzed using a BD Accuri™ C6 Plus flow cytometer (Becton Dickinson, Germany).

[2] = biological target: T2, human iRhom2 full length wild type …; test: FACS Scatchard

Binder | binding result [1] | Kd [2] [pM]
B1 | no binding (tested: 3 µg/ml) | 990
B2 | no binding (tested: 3 µg/ml) | 1070
B3 | no binding (tested: 3 µg/ml) | 670
B4 | no binding (tested: 3 µg/ml) | 480
B5 | no binding (tested: 3 µg/ml) | 580
B6 | no binding (tested: 3 µg/ml) | 500
